The values below are quoted from earlier work in PMC8199771.

For data set [1], the target named is muscle nAChR alpha1-epsilon interface (Mus musculus) (UniProt P04756).
The target of data set [2] is muscle nAChR alpha1-gamma and alpha1-delta interfaces (Mus musculus) (UniProt P04756).
Data set [3] has as its target muscle nAChR alpha-epsilon interface (Mus musculus) (UniProt P04756).
Data set [4] has as its target muscle nAChR (Homo sapiens) (UniProt P02708).
Data set [5] addresses muscle nAChR alpha-delta interface (Mus musculus) (UniProt P04756).

As to NmmI (from UniProt P01431), the results for the dissociation constant Kd in data set [1] and in data set [2] were 0.1 µM and 0.0001 µM, respectively.
As to Waglerin-1 (from UniProt P24335), the Kd (usually the free concentration of one partner at which half of the binding sites on the other are occupied at equilibrium, for simple one-to-one binding) in data set [3] was 0.0098 µM; in data set [4], 0.692 µM; in data set [5], 20.2 µM.
